Laboratory results taken from patent US7611713.
Like-named read-outs stand apart in the source and are kept apart here.

How the values were obtained:
[1] = biological target: HLA-A*1101 (human)
[2] = biological target: HLA-DR1 (DRB1*0101) (human)
[3] = biological target: HLA-DR5w11 (DRB1*1101) (human)
[4] = biological target: HLA-DR7 (DRB1*0701) (human)
[5] = biological target: HLA-DR2w2β2 (DRB5*0101) (human)
[6] = biological target: HLA-DR6w19 (DRB1*1302) (human)
[7] = biological target: HLA-DR1 (DRB1*0101) (human); experiment: HLA class II peptide binding assay, ratio to standard peptide; details: remark: other sources report otherwise
[8] = biological target: HLA-DR4w4 (DRB1*0401) (human); experiment: as above; details: remark: other sources report otherwise
[9] = biological target: HLA-DR5w11 (DRB1*1101) (human); experiment: as above; details: remark: other sources report otherwise
[10] = biological target: HLA-DR7 (DRB1*0701) (human); experiment: as above; details: remark: other sources report otherwise
[11] = biological target: HLA-A*0201 (human)
[12] = biological target: HLA-B*0701 (as printed in the head of Table XXII) (human); experiment: competitive inhibition of radiolabeled standard peptide binding to purified HLA
[13] = biological target: HLA-A*0301 (human)
[14] = biological target: HLA-B*0702 (human); experiment: competition with radiolabeled standard peptide for purified HLA, gel filtration
[15] = biological target: HLA-B*5101 (human); experiment: as above; details: remark: other sources report otherwise
[16] = biological target: HLA-B*5401 (human); experiment: as above; details: remark: other sources report otherwise
[17] = biological target: HLA-DR7 (DRB1*0701) (human); experiment: competition with standard peptide for purified HLA-DR, relative to standard
[18] = biological target: HLA-A*0201 (human); experiment: competitive inhibition of radiolabeled standard peptide binding to purified HLA
[19] = biological target: HLA-DR1 (DRB1*0101) (human); experiment: competition with standard peptide for purified HLA-DR, relative to standard
[20] = biological target: HLA-DR5w11 (DRB1*1101) (human); experiment: as above
[21] = biological target: HLA-DRw53 (DRB4*0101) (human); experiment: as above
[22] = biological target: HLA-DR2w2β1 (DRB1*1501) (human); experiment: HLA class II peptide binding assay, ratio to standard peptide
[23] = biological target: HLA-DR3 (DRB1*0301) (human); experiment: as above; details: remark: other sources report otherwise
[24] = biological target: HLA-DR4w15 (DRB1*0405) (human); experiment: as above; details: remark: other sources report otherwise
[25] = biological target: HLA-DR6w19 (DRB1*1302) (human); experiment: as above; details: remark: other sources report otherwise
[26] = biological target: HLA-DR4w4 (DRB1*0401) (human); experiment: competition with standard peptide for purified HLA-DR, relative to standard
[27] = biological target: HLA-DR2w2β1 (DRB1*1501) (human)
[28] = biological target: HLA-A*1101 (human); remark: listed apart in the source
[29] = biological target: HLA-A*3101 (human)
[30] = biological target: HLA-A*3301 (human)
[31] = biological target: HLA-A*6801 (human)
[32] = remark: other sources report otherwise

B1: HBV NUC 60 peptide … (peptide)
peptide: LDTASALYR
modifications: not checked
Binder B1 has a binding affinity ratio (IC50 of standard peptide / IC50 of test peptide) [1] of -0.0002.

B2: … (peptide)
peptide: WPKFAVPNLQSLTNL
modifications: not checked
With B2 the binding affinity ratio (IC50 of standard peptide / IC50 of test peptide) [2] was 0.0007, the binding affinity ratio (IC50 of standard peptide / IC50 of test peptide) [3] was 0.0002 and the binding affinity ratio (IC50 of standard peptide / IC50 of test peptide) [4] was 0.0008.

B3: … (peptide)
peptide: VGLLGFAAPFTQCGY
modifications: not checked
Binder B3 has a binding affinity ratio (IC50 of standard peptide / IC50 of test peptide) [5] of 0.0008, a binding affinity ratio (IC50 of standard peptide / IC50 of test peptide) [3] of -0.0004 and a binding affinity ratio (IC50 of standard peptide / IC50 of test peptide) [6] of -0.0001.

B4: HBV peptide … (peptide)
peptide: NAPILSTLPETTVVR
modifications: not checked
Binder B4 has a binding affinity ratio (IC50 of standard peptide / IC50 of test peptide) [7] of 0.0009, a binding affinity ratio (IC50 of standard peptide / IC50 of test peptide) [8] of -0.0007 and a binding affinity ratio (IC50 of standard peptide / IC50 of test peptide) [9] of -0.0002. For the same binder, the binding affinity ratio (IC50 of standard peptide / IC50 of test peptide) [10] was 0.0005.

B5: HBV ENV 254 peptide LIFLLVLL (peptide)
peptide: LIFLLVLL
modifications: not checked
Binder B5 has a binding affinity ratio (relative to standard peptide) [11] of 0.0025.

B6: HBV POL 752 peptide … (peptide)
peptide: LLGCAANWI
modifications: not checked
B6 gave a binding affinity ratio (relative to standard peptide) [11] of 0.0011.

B7: HBV POL 153 peptide KAGILYKR (peptide)
peptide: KAGILYKR
modifications: not checked
For B7, the binding affinity ratio (IC50 of standard peptide / IC50 of test peptide) [1] was -0.0002.

B8: HBV ENV 330 peptide … (peptide)
peptide: SVRFSWLSLL
modifications: not checked
Work on B8 yielded a binding affinity ratio (IC50 of standard peptide / IC50 of test peptide) [11] of 0.0004.

B9: HBV NUC 141 peptide … (peptide)
peptide: STLPETTVV
modifications: not checked
Work on B9 yielded a binding affinity ratio (IC50 of standard peptide / IC50 of test peptide) [11] of 0.0019.

B10: MAGE3 196 (peptide)
peptide: MPKAGLLII
modifications: not checked
B10 gave an IC50 [12] of 940 nM.

B11: HBV NUC 45 peptide … (peptide)
peptide: LSFLPSDFF
modifications: not checked
Binder B11 has a binding affinity ratio (IC50 of standard peptide / IC50 of test peptide) [13] of 0.0006.

B12: HBV NUC 99 peptide … (peptide 1142.03) (peptide)
peptide: QLLWFHISCL
modifications: not checked
Binder B12 has a binding affinity ratio (IC50 of standard peptide / IC50 of test peptide) [11] of 0.006.

B13: HBV POL 581 peptide … (peptide)
peptide: SLNFMGYVI
modifications: not checked
In the case of B13, the binding affinity ratio (IC50 of standard peptide / IC50 of test peptide) [11] is reported as 0.0038.

B14: HBV POL 393 peptide … (peptide)
peptide: WPKFAVPNL
modifications: not checked
Work on B14 yielded a binding affinity ratio (IC50 of standard peptide / IC50 of test peptide) [14, 32] of 0.0054, a binding affinity ratio (IC50 of standard peptide / IC50 of test peptide) [15] of 0.0016 and a binding affinity ratio (IC50 of standard peptide / IC50 of test peptide) [16] of 0.0015.

B15: … (peptide)
peptide: DLNLGNLNVSIPWTH
modifications: not checked
B15 showed a binding affinity ratio (IC50 of standard peptide / IC50 of test peptide) [17] of 0.001.

B16: … (peptide)
peptide: RDLLDTASALYREAL
modifications: not checked
B16 gave a binding affinity ratio (IC50 of standard peptide / IC50 of test peptide) [2, 32] of 0.0001 and a binding affinity ratio (IC50 of standard peptide / IC50 of test peptide) [4, 32] of 0.077.

B17: HBV ENV 175 peptide … (peptide)
peptide: LLVLQAGFF
modifications: not checked
For B17, the binding affinity ratio (IC50 of standard peptide / IC50 of test peptide) [13] was 0.0006.

B18: HBV ENV 260 peptide LLDYQGML (peptide)
peptide: LLDYQGML
modifications: not checked
For B18, the binding affinity ratio (relative to standard peptide) [11] was 0.0004.

B19: HBV POL 771 peptide … (peptide)
peptide: ILRGTSFVY
modifications: not checked
In the case of B19, the binding affinity ratio (IC50 of standard peptide / IC50 of test peptide) [13, 32] is reported as 0.044.

B20: HBV ENV 207 … (peptide 20.0120) (peptide)
peptide: DSWWTSLNF
modifications: not checked
B20 showed a binding affinity ratio [13] of 0.0006.

B21: HBV peptide … (peptide)
peptide: PLPIHTAELLAACFA
modifications: not checked
B21 gave a binding affinity ratio (IC50 of standard peptide / IC50 of test peptide) [7] of 0.0046 and a binding affinity ratio (IC50 of standard peptide / IC50 of test peptide) [10] of -0.0003.

B22: HBV POL 768 peptide … (peptide)
peptide: YVPSALNPA
modifications: not checked
With B22 the binding affinity ratio (IC50 of standard peptide / IC50 of test peptide) [18] was 0.0039.

B23: HBV POL 398 peptide … (peptide)
peptide: VPNLQSLTNL
modifications: not checked
B23 was tested, and the binding affinity ratio (IC50 of standard peptide / IC50 of test peptide) [14] was 0.0006.

B24: … (peptide)
peptide: ASKLCLGWLWGMDID
modifications: not checked
B24 showed a binding affinity ratio (IC50 of standard peptide / IC50 of test peptide) [19] of 0.0002, a binding affinity ratio (IC50 of standard peptide / IC50 of test peptide) [20] of -0.0002 and a binding affinity ratio (IC50 of standard peptide / IC50 of test peptide) [21] of 0.001.

B25: HBV peptide … (peptide)
peptide: LAQFTSAICSVVRRA
modifications: not checked
B25 was tested, and the binding affinity ratio (IC50 of standard peptide / IC50 of test peptide) [22] was 0.0065, the binding affinity ratio (IC50 of standard peptide / IC50 of test peptide) [23] was -0.0009 and the binding affinity ratio (IC50 of standard peptide / IC50 of test peptide) [24] was 0.028. It also gave a binding affinity ratio (IC50 of standard peptide / IC50 of test peptide) [9] of 0.0076, a binding affinity ratio (IC50 of standard peptide / IC50 of test peptide) [25] of 0.001 and a binding affinity ratio (IC50 of standard peptide / IC50 of test peptide) [10] of 0.028.

B26: HBV POL 357 peptide … (peptide)
peptide: RVTGGVFLV
modifications: not checked
Work on B26 yielded a binding affinity ratio (IC50 of standard peptide / IC50 of test peptide) [11, 32] of 0.0041.

B27: … (peptide)
peptide: IVGLLGFAAPFTQCG
modifications: not checked
With B27 the binding affinity ratio (IC50 of standard peptide / IC50 of test peptide) [19] was 0.02, the binding affinity ratio (IC50 of standard peptide / IC50 of test peptide) [26] was -0.0007 and the binding affinity ratio (IC50 of standard peptide / IC50 of test peptide) [20] was -0.0002. For the same binder, the binding affinity ratio (IC50 of standard peptide / IC50 of test peptide) [17] was 0.0009.

B28: … (peptide)
peptide: VGNFTGLYSSTVPVF
modifications: not checked
B28 showed a binding affinity ratio (IC50 of standard peptide / IC50 of test peptide) [27] of 0.01 and a binding affinity ratio (IC50 of standard peptide / IC50 of test peptide) [4, 32] of 0.56.

B29: … (peptide)
peptide: AEDLNLGNLNVSIPW
modifications: not checked
In the case of B29, the binding affinity ratio (IC50 of standard peptide / IC50 of test peptide) [19] is reported as 0.0001, the binding affinity ratio (IC50 of standard peptide / IC50 of test peptide) [26] is reported as -0.0007 and the binding affinity ratio (IC50 of standard peptide / IC50 of test peptide) [20] is reported as -0.0002. It also gave a binding affinity ratio (IC50 of standard peptide / IC50 of test peptide) [17] of -0.0003.

B30: HBV NUC 175 peptide … (peptide)
peptide: TTVVRRRGR
modifications: not checked
With B30 the binding affinity ratio (IC50 of standard peptide / IC50 of test peptide) [28] was 0.0005, the binding affinity ratio (IC50 of standard peptide / IC50 of test peptide) [29] was 0.25 and the binding affinity ratio (IC50 of standard peptide / IC50 of test peptide) [30] was 0.14. The binding affinity ratio (IC50 of standard peptide / IC50 of test peptide) [31] was 0.0095.

B31: HBV NUC 30 peptide … (peptide)
peptide: LLDTASALYR
modifications: not checked
B31 gave a binding affinity ratio (IC50 of standard peptide / IC50 of test peptide) [13] of 0.005.

B32: HBV X 133 peptide VLGGCRHK (peptide)
peptide: VLGGCRHK
modifications: not checked
B32 gave a binding affinity ratio (IC50 of standard peptide / IC50 of test peptide) [29] of -0.0005 and a binding affinity ratio (IC50 of standard peptide / IC50 of test peptide) [30] of -0.0009.

B33: HBV POL 569 peptide … (peptide)
peptide: HLNPNKTKR
modifications: not checked
B33 gave a binding affinity ratio (IC50 of standard peptide / IC50 of test peptide) [13] of 0.0025.
